Data taken from article PMC12038025.

Tests used:
O35161 = test: SEC-MALS
[1] = target: CELSR1 extracellular region, CADH1 through GAIN domains (residues 255-2477) (mouse) (UniProt O35161); test: SEC-MALS

Substance	percent dimer in the main peak (O35161)	stoichiometry N [1]
CELSR1 extracellular region, CADH1 through GAIN domains (residues 255-2477)	roughly 60% dimer	
CELSR1 extracellular region, CADH1 through GAIN domains (residues 255-2477), O35161 255-2477		2
